Experimental findings from PMC314469, “Protein Interaction Networks by Proteome Peptide Scanning” (PLoS Biology, 2004) are described below.

To fix the notation:
T1: Abp1 SH3 (ABP1_YEAST), P15891
T1 chain: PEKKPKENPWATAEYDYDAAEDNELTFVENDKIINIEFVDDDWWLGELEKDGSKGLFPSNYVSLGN

The target in this assay is T1, Abp1 SH3 (ABP1_YEAST), P15891. Description: SPOT array.
Consider DRRRLLGPAAAKP [YGR158C 5-17], for which the normalised SPOT signal, Boehringer light units (BLU); mean over the file's lines of this peptide came to 483. The figure for DNIAEYVPDKKRP [YMR266W 274-286] is 91; for DLNNLKHPSKGRP [YMR304W 152-164] it is 86.6.

DPQIMDEYSYPGRP [YDR182W 95-108] displayed a normalised SPOT signal, Boehringer light units (BLU); mean over the file's lines of this peptide of 144. The figure for DTKRLGTPESVKP [YLR071C 1030-1042] is 130; for EESKARSPGIAKP [YDR227W 268-280] it is 404; for EDDTNPQLLEPVKP [YDR528W 157-170] it is 86.1.

For the molecule DVPNTAGPHIARP [YOR028C 108-120], the normalised SPOT signal, Boehringer light units (BLU); mean over the file's lines of this peptide is 144. The figure for DKYSTLRPGIPLKP [YDL164C 380-393] is 1000. The figure for DWALLRNQNDPQKP [YLR357W 414-427] is 145; for DSKGARFLPAPHRP [YGR154C 60-73] it is 299; for EDEEGPPPAMPARP [YBL007C 188-201] it is 36.2. The figure for DVMKQSFPRLIKP [YPL073C 93-105] is 2470; for DKQLIWHKNKPTKP [YBL101W-B 1603-1616] it is 1730; for DSIWPDFETLPERP [YLL029W 272-285] it is 0. With DSSSANGKFIPSRP [YHL007C 462-475], the normalised SPOT signal, Boehringer light units (BLU); mean over the file's lines of this peptide worked out at 98.6. The figure for DLPEYLLPPDLKP [YDR477W 309-321] is 23.2; for DLKSRVLPHLKKP [YNL241C 60-72] it is 440.

EEEEGEVLLPPSRP [YLR079W 130-143] returned a normalised SPOT signal, Boehringer light units (BLU); mean over the file's lines of this peptide of 81.5. The figure for DMERKMTPALNRP [YDR074W 548-560] is 2180.

With DKQLIWHKSKPVKP [YBL005W-B 1588-1601], the normalised SPOT signal, Boehringer light units (BLU); mean over the file's lines of this peptide is 2860. The figure for DVKKEQAPEGKRP [YDL213C 31-43] is 94.6; for DLTVLRKPQQLRP [YDR488C 342-354] it is 27100. The figure for DNARKSEELYPGRP [YAL038W 65-78] is 105.

The molecule DTERLKRDLSPRKP [YBL111C 228-241] registered a normalised SPOT signal, Boehringer light units (BLU); mean over the file's lines of this peptide of 394. The figure for DVDSSSTPFGTKP [YIL115C 681-693] is 113. The figure for DLNDSGFPPKRKP [YMR275C 4-16] is 84.6; for DLPRLKWSAIPVRP [YMR265C 218-231] it is 2060; for DVITHFGPDADKP [YBL035C 6-18] it is 25.6.

For DLHTHNLHTIPRKP [YNL042W 273-286], the normalised SPOT signal, Boehringer light units (BLU); mean over the file's lines of this peptide turned out to be 76. The figure for EEFDSYSRSRPTRP [YNL165W 290-303] is 254; for DSVLRQKPDKPRP [YMR032W 380-392] it is 380. The figure for DVIISPTTLMPFRP [YDR242W 443-456] is 68.9.

DVAQPGGVAKPKKP [YNL298W 506-519] showed a normalised SPOT signal, Boehringer light units (BLU); mean over the file's lines of this peptide of 62. The figure for EDFKDTKPVHKKP [YOR287C 64-76] is 144; for EEFPEIIPLQQRP [YPL117C 30-42] it is 145; for EEKAKAVNELPTKP [YGR037C 7-20] it is 188. As for DSSLQHQQRQPKRP [YJR147W 209-222], the normalised SPOT signal, Boehringer light units (BLU); mean over the file's lines of this peptide amounted to 105. As to DTNDIKTPHPERP [YER169W 627-639], the normalised SPOT signal, Boehringer light units (BLU); mean over the file's lines of this peptide stood at 77.3. The figure for DVGSTIPYDFPEKP [YGL212W 55-68] is 140; for DLEFIYDTFHPFKP [YPL009C 301-314] it is 89.2. The figure for DMFDFLIDVVPRRP [YOR358W 226-239] is 230; for DQNQERKNSVPKKP [YHR004C 68-81] it is 60; for DQVPVTTQLPPIKP [YER159C 3-16] it is 74.1. The figure for DTLYINGIRIPYRP [YPR032W 898-911] is 135.

For DPEPAKASTKPEKP [YNL106C 1102-1115], the normalised SPOT signal, Boehringer light units (BLU); mean over the file's lines of this peptide worked out at 76.2. The figure for EEEIELPPGVKKP [YFL004W 659-671] is 77.1.

Regarding DKTRSSLHFKPMRP [YNL023C 749-762], the normalised SPOT signal, Boehringer light units (BLU); mean over the file's lines of this peptide was 377. In turn, DKVFIPDPKTGRP [YAL054C 106-118] showed a normalised SPOT signal, Boehringer light units (BLU); mean over the file's lines of this peptide of 66.6. For EALKQKKIPPPFKP [YHR205W 677-690], the normalised SPOT signal, Boehringer light units (BLU); mean over the file's lines of this peptide was 3010. The figure for DNDEEADPSSFKP [YLR087C 1186-1198] is 68.3; for DVLFSYFPITFKP [YIL128W 218-230] it is 32.1; for EEPEDFLPPPPKP [YLR285W 15-27] it is 108. The figure for DSIAKLQPQVYKP [YFR037C 542-554] is 83.3.
